Tested on: Escherichia coli TOP10
Assay: shrunken log2 fold change of peptide-encoding DNA abundance (4.5 h post-induction vs induction); higher = less antimicrobial activity (less host growth inhibition)
Conditions: time post-induction: 4.5 h; library: site-saturation at positions 5, 18, 19, 20
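Note: peptides expressed intracellularly from a pBAD plasmid library in pooled LB shake-flask culture, induced with 0.3% L-arabinose, DNA abundance read by NGS, three biological replicates, DESeq2 with apeglm shrinkage.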

Compared with RRIRVRPPRLPRPRPRPHFLPRP, RRIRVRPPRLPRPRPRPHGAPRP is lower in “shrunken log2 fold change” value: 0.187 for the first, -0.0881 for the second.

RRIRVRPPRLPRPRPRPHGEPRP and RRIRVRPPRLPRPRPRPHGFPRP are within 0.2 log units of each other in “shrunken log2 fold change” value: 0.0918 for the first, -0.017 for the second.

First: RRIRVRPPRLPRPRPRPHGVPRP
Second: RRIRVRPPRLPRPRPRPHHLPRP
The “shrunken log2 fold change” value of the first is higher: 0.0673 for the first, -0.24 for the second.

RRIRVRPPRLPRPRPRPHHMPRP and RRIRVRPPRLPRPRPRPHHWPRP are within 0.2 log units of each other in “shrunken log2 fold change” value: -0.26 for the first, -0.157 for the second.

First: RRIRVRPPRLPRPRPRPHHYPRP
Second: RRIRVRPPRLPRPRPRPHINPRP
The “shrunken log2 fold change” value of the first is higher: 0.13 for the first, -0.524 for the second.

RRIRVRPPRLPRPRPRPHISPRP and RRIRVRPPRLPRPRPRPHKFPRP are within 0.2 log units of each other in “shrunken log2 fold change” value: 0.0648 for the first, 0.0807 for the second.

RRIRVRPPRLPRPRPRPHMAPRP and RRIRVRPPRLPRPRPRPHMFPRP are within 0.2 log units of each other in “shrunken log2 fold change” value: -0.339 for the first, -0.199 for the second.

Compared with RRIRVRPPRLPRPRPRPHMYPRP, RRIRVRPPRLPRPRPRPHNPPRP is higher in “shrunken log2 fold change” value: -0.509 for the first, -0.272 for the second.

RRIRVRPPRLPRPRPRPHPTPRP and RRIRVRPPRLPRPRPRPHQIPRP are within 0.2 log units of each other in “shrunken log2 fold change” value: 0.23 for the first, 0.12 for the second.

First: RRIRVRPPRLPRPRPRPHQQPRP
Second: RRIRVRPPRLPRPRPRPHQTPRP
The “shrunken log2 fold change” value of the first is higher: -0.0863 for the first, -0.443 for the second.

Compared with RRIRVRPPRLPRPRPRPHRFPRP, RRIRVRPPRLPRPRPRPHSKPRP is lower in “shrunken log2 fold change” value: 0.0259 for the first, -0.496 for the second.

RRIRVRPPRLPRPRPRPHTPPRP and RRIRVRPPRLPRPRPRPHTWPRP are within 0.2 log units of each other in “shrunken log2 fold change” value: -0.271 for the first, -0.351 for the second.

RRIRVRPPRLPRPRPRPIAGPRP and RRIRVRPPRLPRPRPRPIAQPRP are within 0.2 log units of each other in “shrunken log2 fold change” value: 0.0142 for the first, -0.061 for the second.

First: RRIRVRPPRLPRPRPRPIDKPRP
Second: RRIRVRPPRLPRPRPRPIEHPRP
The “shrunken log2 fold change” value of the first is lower: -0.471 for the first, -0.168 for the second.

RRIRVRPPRLPRPRPRPIHVPRP and RRIRVRPPRLPRPRPRPIIRPRP are within 0.2 log units of each other in “shrunken log2 fold change” value: -0.155 for the first, -0.199 for the second.

RRIRVRPPRLPRPRPRPILGPRP and RRIRVRPPRLPRPRPRPILVPRP are within 0.2 log units of each other in “shrunken log2 fold change” value: 0.0313 for the first, -0.00597 for the second.

First: RRIRVRPPRLPRPRPRPIMNPRP
Second: RRIRVRPPRLPRPRPRPINVPRP
The “shrunken log2 fold change” value of the first is lower: -0.752 for the first, -0.342 for the second.

RRIRVRPPRLPRPRPRPIPAPRP and RRIRVRPPRLPRPRPRPIQCPRP are within 0.2 log units of each other in “shrunken log2 fold change” value: 0.000426 for the first, 0.078 for the second.

RRIRVRPPRLPRPRPRPIQWPRP and RRIRVRPPRLPRPRPRPIRCPRP are within 0.2 log units of each other in “shrunken log2 fold change” value: 0.138 for the first, -0.0498 for the second.

First: RRIRVRPPRLPRPRPRPIRQPRP
Second: RRIRVRPPRLPRPRPRPIRYPRP
The “shrunken log2 fold change” value of the first is lower: -0.294 for the first, 0.146 for the second.

Compared with RRIRVRPPRLPRPRPRPIYQPRP, RRIRVRPPRLPRPRPRPKACPRP is higher in “shrunken log2 fold change” value: -0.27 for the first, 0.153 for the second.

RRIRVRPPRLPRPRPRPKAQPRP and RRIRVRPPRLPRPRPRPKAYPRP are within 0.2 log units of each other in “shrunken log2 fold change” value: 0.107 for the first, 0.0199 for the second.

Going from RRIRVRPPRLPRPRPRPKCRPRP to RRIRVRPPRLPRPRPRPKDEPRP, the “shrunken log2 fold change” value falls from 0.224 to -0.205.

RRIRVRPPRLPRPRPRPKDFPRP and RRIRVRPPRLPRPRPRPKEAPRP are within 0.2 log units of each other in “shrunken log2 fold change” value: 0.123 for the first, -0.0421 for the second.

RRIRVRPPRLPRPRPRPKEDPRP and RRIRVRPPRLPRPRPRPKEIPRP are within 0.2 log units of each other in “shrunken log2 fold change” value: 0.0522 for the first, 0.104 for the second.

First: RRIRVRPPRLPRPRPRPKEMPRP
Second: RRIRVRPPRLPRPRPRPKFNPRP
The “shrunken log2 fold change” value of the first is higher: -0.131 for the first, -0.42 for the second.

RRIRVRPPRLPRPRPRPKFPPRP and RRIRVRPPRLPRPRPRPKHEPRP are within 0.2 log units of each other in “shrunken log2 fold change” value: 0.102 for the first, -0.0072 for the second.

RRIRVRPPRLPRPRPRPKIFPRP and RRIRVRPPRLPRPRPRPKKPPRP are within 0.2 log units of each other in “shrunken log2 fold change” value: -0.00445 for the first, -0.0463 for the second.

Going from RRIRVRPPRLPRPRPRPKKTPRP to RRIRVRPPRLPRPRPRPKLGPRP, the “shrunken log2 fold change” value rises from -0.0604 to 0.173.

RRIRVRPPRLPRPRPRPKMDPRP and RRIRVRPPRLPRPRPRPKMQPRP are within 0.2 log units of each other in “shrunken log2 fold change” value: -0.093 for the first, 0.0937 for the second.

RRIRVRPPRLPRPRPRPKNEPRP and RRIRVRPPRLPRPRPRPKNPPRP are within 0.2 log units of each other in “shrunken log2 fold change” value: 0.00832 for the first, -0.17 for the second.

First: RRIRVRPPRLPRPRPRPKQYPRP
Second: RRIRVRPPRLPRPRPRPKSLPRP
The “shrunken log2 fold change” value of the first is lower: -0.558 for the first, -0.0854 for the second.

RRIRVRPPRLPRPRPRPKTPPRP and RRIRVRPPRLPRPRPRPKVVPRP are within 0.2 log units of each other in “shrunken log2 fold change” value: 0.334 for the first, 0.174 for the second.

RRIRVRPPRLPRPRPRPKWEPRP and RRIRVRPPRLPRPRPRPKWFPRP are within 0.2 log units of each other in “shrunken log2 fold change” value: 0.00343 for the first, -0.0567 for the second.

Going from RRIRVRPPRLPRPRPRPKWRPRP to RRIRVRPPRLPRPRPRPLALPRP, the “shrunken log2 fold change” value falls from 0.327 to -0.181.

RRIRVRPPRLPRPRPRPLANPRP and RRIRVRPPRLPRPRPRPLCSPRP are within 0.2 log units of each other in “shrunken log2 fold change” value: -0.0581 for the first, -0.0335 for the second.

First: RRIRVRPPRLPRPRPRPLDKPRP
Second: RRIRVRPPRLPRPRPRPLFMPRP
The “shrunken log2 fold change” value of the first is higher: 0.0163 for the first, -0.663 for the second.

RRIRVRPPRLPRPRPRPLGYPRP and RRIRVRPPRLPRPRPRPLHSPRP are within 0.2 log units of each other in “shrunken log2 fold change” value: -0.0838 for the first, -0.0269 for the second.

First: RRIRVRPPRLPRPRPRPLLRPRP
Second: RRIRVRPPRLPRPRPRPLMRPRP
The “shrunken log2 fold change” value of the first is lower: 0.0947 for the first, 0.515 for the second.

Compared with RRIRVRPPRLPRPRPRPLNIPRP, RRIRVRPPRLPRPRPRPLPAPRP is higher in “shrunken log2 fold change” value: -0.0458 for the first, 0.449 for the second.

RRIRVRPPRLPRPRPRPLPWPRP and RRIRVRPPRLPRPRPRPLQMPRP are within 0.2 log units of each other in “shrunken log2 fold change” value: 0.196 for the first, 0.312 for the second.

First: RRIRVRPPRLPRPRPRPLRMPRP
Second: RRIRVRPPRLPRPRPRPLRWPRP
The “shrunken log2 fold change” value of the first is lower: 0.191 for the first, 0.63 for the second.

RRIRVRPPRLPRPRPRPLSIPRP and RRIRVRPPRLPRPRPRPLSRPRP are within 0.2 log units of each other in “shrunken log2 fold change” value: -0.233 for the first, -0.132 for the second.

RRIRVRPPRLPRPRPRPLSTPRP and RRIRVRPPRLPRPRPRPLTAPRP are within 0.2 log units of each other in “shrunken log2 fold change” value: -0.0699 for the first, 0.106 for the second.

RRIRVRPPRLPRPRPRPLTSPRP and RRIRVRPPRLPRPRPRPLTVPRP are within 0.2 log units of each other in “shrunken log2 fold change” value: 0.0775 for the first, 0.0473 for the second.

First: RRIRVRPPRLPRPRPRPLVGPRP
Second: RRIRVRPPRLPRPRPRPLWLPRP
The “shrunken log2 fold change” value of the first is higher: 0.726 for the first, -0.00434 for the second.

RRIRVRPPRLPRPRPRPLWNPRP and RRIRVRPPRLPRPRPRPLYQPRP are within 0.2 log units of each other in “shrunken log2 fold change” value: -0.197 for the first, -0.0431 for the second.

RRIRVRPPRLPRPRPRPMAQPRP and RRIRVRPPRLPRPRPRPMAVPRP are within 0.2 log units of each other in “shrunken log2 fold change” value: 0.149 for the first, -0.0191 for the second.

RRIRVRPPRLPRPRPRPMCEPRP and RRIRVRPPRLPRPRPRPMDQPRP are within 0.2 log units of each other in “shrunken log2 fold change” value: 0.0553 for the first, 0.188 for the second.

RRIRVRPPRLPRPRPRPMGDPRP and RRIRVRPPRLPRPRPRPMGNPRP are within 0.2 log units of each other in “shrunken log2 fold change” value: -0.104 for the first, -0.0915 for the second.

Going from RRIRVRPPRLPRPRPRPMGWPRP to RRIRVRPPRLPRPRPRPMGYPRP, the “shrunken log2 fold change” value falls from 0.202 to -0.0568.

RRIRVRPPRLPRPRPRPMHSPRP and RRIRVRPPRLPRPRPRPMHYPRP are within 0.2 log units of each other in “shrunken log2 fold change” value: -0.179 for the first, -0.266 for the second.

Going from RRIRVRPPRLPRPRPRPMIMPRP to RRIRVRPPRLPRPRPRPMITPRP, the “shrunken log2 fold change” value rises from -0.126 to 0.104.

Compared with RRIRVRPPRLPRPRPRPMIYPRP, RRIRVRPPRLPRPRPRPMKNPRP is higher in “shrunken log2 fold change” value: -0.38 for the first, -0.104 for the second.

In the case of RRIRVRPPRLPRPRPRPMLDPRP, the “shrunken log2 fold change” value was -0.215.

From the supplement of paper PMC9112550, “Optimization of the antimicrobial peptide Bac7 by deep mutational scanning” (BMC Biology, 2022)
